Legend:
[1] = target: recombinant human PSMA (prostate-specific membrane antigen), biotin-tagged (human) (UniProt Q04609); assay: native ELISA, streptavidin-captured biotin-tagged PSMA, Fab titrated
[2] = target: recombinant human PSMA (prostate-specific membrane antigen), biotin-tagged (human) (UniProt Q04609); assay: ELISA on plates coated with recombinant PSMA (biotin-tagged, captured on streptavidin), two-fold dilution series, goat anti-human-HRP and TMB
[3] = target: human PSMA displayed on the surface of LNCaP cells (human) (UniProt Q04609); assay: flow cytometry on LNCaP cells, Fab titrated
[4] = target: human PSMA displayed on the surface of LNCaP cells (human) (UniProt Q04609); assay: flow cytometry titration on cells (three-fold dilution series, anti-Strep antibody and goat anti-mouse Alexa Fluor 647); the sheet does not name the cell line, the text gives the curves as binding to cell-surface PSMA (LNCaP)
[5] = target: recombinant human PSMA (prostate-specific membrane antigen), biotin-tagged (human) (UniProt Q04609); assay: native ELISA, streptavidin-captured biotin-tagged PSMA, IgG1 titrated
[6] = target: recombinant human PSMA (prostate-specific membrane antigen), biotin-tagged (human) (UniProt Q04609); assay: ELISA on plates coated with recombinant PSMA, two-fold dilution series, goat anti-human-HRP and TMB
[7] = target: human PSMA displayed on the surface of LNCaP cells (human) (UniProt Q04609); assay: flow cytometry on LNCaP cells, IgG1 titrated

Chain of human PSMA displayed on the surface of LNCaP cells (human) (Q04609 whole entry): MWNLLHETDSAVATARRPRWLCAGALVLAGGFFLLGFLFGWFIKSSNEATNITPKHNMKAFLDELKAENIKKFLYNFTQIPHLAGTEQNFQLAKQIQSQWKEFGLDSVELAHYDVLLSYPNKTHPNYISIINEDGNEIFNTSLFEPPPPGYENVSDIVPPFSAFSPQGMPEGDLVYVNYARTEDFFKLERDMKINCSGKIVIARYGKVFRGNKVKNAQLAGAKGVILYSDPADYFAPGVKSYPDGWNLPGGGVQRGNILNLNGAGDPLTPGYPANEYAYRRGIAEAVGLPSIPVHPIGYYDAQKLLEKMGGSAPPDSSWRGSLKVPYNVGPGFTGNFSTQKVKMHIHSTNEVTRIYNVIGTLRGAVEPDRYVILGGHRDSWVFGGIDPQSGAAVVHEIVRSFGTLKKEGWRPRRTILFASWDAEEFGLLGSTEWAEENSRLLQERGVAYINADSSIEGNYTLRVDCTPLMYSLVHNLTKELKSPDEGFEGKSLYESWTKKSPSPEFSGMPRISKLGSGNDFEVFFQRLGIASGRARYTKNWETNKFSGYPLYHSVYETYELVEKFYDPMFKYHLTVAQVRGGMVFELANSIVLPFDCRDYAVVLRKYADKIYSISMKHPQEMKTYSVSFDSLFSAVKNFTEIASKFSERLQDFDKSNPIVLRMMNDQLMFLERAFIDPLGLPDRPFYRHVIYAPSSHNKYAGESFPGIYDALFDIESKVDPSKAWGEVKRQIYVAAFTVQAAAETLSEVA
Chain of recombinant human PSMA (prostate-specific membrane antigen), biotin-tagged (human) (Q04609 44-750 limits assumed): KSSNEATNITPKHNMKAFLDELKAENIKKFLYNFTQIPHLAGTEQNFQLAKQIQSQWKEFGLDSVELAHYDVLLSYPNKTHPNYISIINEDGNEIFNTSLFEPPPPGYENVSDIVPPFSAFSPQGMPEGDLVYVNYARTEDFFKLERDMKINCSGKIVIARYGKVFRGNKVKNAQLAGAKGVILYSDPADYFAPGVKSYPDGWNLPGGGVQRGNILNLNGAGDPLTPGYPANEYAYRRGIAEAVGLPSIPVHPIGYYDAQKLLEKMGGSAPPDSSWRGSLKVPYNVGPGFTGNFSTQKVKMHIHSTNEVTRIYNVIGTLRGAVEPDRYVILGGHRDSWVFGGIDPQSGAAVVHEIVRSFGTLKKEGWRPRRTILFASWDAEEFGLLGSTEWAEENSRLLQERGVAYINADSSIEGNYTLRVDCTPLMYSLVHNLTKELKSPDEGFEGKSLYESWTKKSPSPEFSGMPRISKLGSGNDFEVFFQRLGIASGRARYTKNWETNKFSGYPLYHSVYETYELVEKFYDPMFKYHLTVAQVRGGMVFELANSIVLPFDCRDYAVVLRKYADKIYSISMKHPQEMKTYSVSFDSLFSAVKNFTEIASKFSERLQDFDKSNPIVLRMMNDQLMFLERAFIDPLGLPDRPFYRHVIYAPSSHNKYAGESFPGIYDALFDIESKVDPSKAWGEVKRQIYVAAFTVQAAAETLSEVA

Row | Kd [1] | EC50 (read off the curve) [2] | Kd [3] | EC50 (read off the curve) [4] | Kd [5] | EC50 (read off the curve) [6] | Kd [7] | Substance
1 | 1.8 nM | 1 nM | 2.8 nM | 3 nM | – | – | – | Chimeric Fab
2 | – | – | – | – | 0.28 nM | 0.3 nM | 0.35 nM | Chimeric 5D3 IgG1 (antibody)
